From patent US5834290

Assays:
[1] = target: T1, soybean trypsin inhibitor (SBTI), P01070; experiment: affinity chromatography of KCl-extracts of plantar corneocytes on covalently linked soybean trypsin inhibitor
T1 chain: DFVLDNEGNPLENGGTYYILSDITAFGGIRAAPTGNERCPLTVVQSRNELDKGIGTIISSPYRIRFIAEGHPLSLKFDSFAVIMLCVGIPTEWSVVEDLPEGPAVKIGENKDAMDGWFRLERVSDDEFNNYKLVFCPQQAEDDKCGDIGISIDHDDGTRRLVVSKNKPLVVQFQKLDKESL

[2] = target: desmoglein I (DG I) (Homo sapiens (Human)) (UniProt Q02413)
Sequence of desmoglein I (DG I) (Homo sapiens (Human)) (Q02413 50-1049 limits assumed): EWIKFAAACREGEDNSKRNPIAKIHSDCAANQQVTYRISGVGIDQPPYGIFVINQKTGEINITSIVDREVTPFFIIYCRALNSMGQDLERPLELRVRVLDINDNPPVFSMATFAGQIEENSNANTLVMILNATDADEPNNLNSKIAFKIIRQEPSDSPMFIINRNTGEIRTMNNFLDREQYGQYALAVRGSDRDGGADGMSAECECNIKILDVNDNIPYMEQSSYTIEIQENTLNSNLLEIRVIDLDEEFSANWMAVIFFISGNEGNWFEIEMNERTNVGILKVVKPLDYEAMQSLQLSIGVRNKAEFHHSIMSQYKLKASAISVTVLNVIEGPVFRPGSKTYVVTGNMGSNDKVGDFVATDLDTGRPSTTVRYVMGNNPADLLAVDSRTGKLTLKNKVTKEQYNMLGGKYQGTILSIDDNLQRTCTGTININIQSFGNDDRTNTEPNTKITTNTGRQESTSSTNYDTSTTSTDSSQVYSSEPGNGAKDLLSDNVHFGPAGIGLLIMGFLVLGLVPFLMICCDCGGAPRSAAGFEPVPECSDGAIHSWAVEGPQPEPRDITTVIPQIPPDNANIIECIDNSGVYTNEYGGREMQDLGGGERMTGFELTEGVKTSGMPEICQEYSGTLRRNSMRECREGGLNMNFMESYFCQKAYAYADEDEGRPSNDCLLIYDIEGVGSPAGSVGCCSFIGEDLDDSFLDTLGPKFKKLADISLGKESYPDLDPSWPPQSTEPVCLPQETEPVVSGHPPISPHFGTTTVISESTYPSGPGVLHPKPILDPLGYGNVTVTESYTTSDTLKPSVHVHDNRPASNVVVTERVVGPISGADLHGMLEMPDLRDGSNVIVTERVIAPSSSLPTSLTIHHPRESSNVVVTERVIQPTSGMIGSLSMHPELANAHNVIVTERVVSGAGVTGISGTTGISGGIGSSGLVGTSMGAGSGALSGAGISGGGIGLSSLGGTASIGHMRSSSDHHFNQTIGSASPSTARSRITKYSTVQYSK

B1: stratum corneum chymotryptic enzyme (SCCE), native, from human plantar stratum corneum (protein)
chain: IIDGAPCARGSHPWQVALLSGNQLHCGGVLVNERWVLTAAHCKMNEYTVHLGSDTLGDRRAQRIKASKSFRHPGYSTQTHVNDLMLVKLNSQARLSSMVKKVRLPSRCEPPGTTCTVSGWGTTTSPDVTFPSDLMCVDVKLISPQDCTKVYKDLLENSMLCAGIPDSKKNACNGDSGGPLVCRGTLQGLVSWGTFPCGQPNDPGVYTQVCKFTKWINDTMKKHR
In the case of B1, the “percent of the S-2586 hydrolyzing activity bound to the gel” value [1] is reported as “Approximately 90% of the S-2586 hydrolyzing activity was bound to the gel”.

B2: recombinant SCCE, active (trypsin-activated recombinant SCCE of Example 10; rSCCE of Examples 12 and 13) (enzyme)
chain: IIDGAPCARGSHPWQVALLSGNQLHCGGVLVNERWVLTAAHCKMNEYTVHLGSDTLGDRRAQRIKASKSFRHPGYSTQTHVNDLMLVKLNSQARLSSMVKKVRLPSRCEPPGTTCTVSGWGTTTSPDVTFPSDLMCVDVKLISPQDCTKVYKDLLENSMLCAGIPDSKKNACNGDSGGPLVCRGTLQGLVSWGTFPCGQPNDPGVYTQVCKFTKWINDTMKKHR
B2 showed a levels of the desmosome marker protein desmoglein I after 24 hours at 37° C., DG I (arbitrary units/mg squames) (arbitrary units/mg squames) [2] of 4060.
